What was measured:
[1] = target: Sbi-E (amino acids 28–266) (Staphylococcus aureus (entry printed for strain Newman)) (UniProt A6QJQ7)
[2] = target: Sbi-III-IV (amino acids 150–266) (Staphylococcus aureus (entry printed for strain Newman)) (UniProt A6QJQ7)

For “complement Factor H (from UniProt P08603 19-1231) (natural protein)”, the inhibition of alternative pathway-mediated lyses of rabbit erythrocytes by human serum, increasing amounts of Sbi-E [1] was 600 ng and the inhibition of alternative pathway-mediated lyses of rabbit erythrocytes by human serum, increasing amounts of Sbi-III/IV [2] was 600 ng.
